These results are taken from PMC3366936.

The target in this assay is OPTN Δ1-394 in pCMV-BD (mammalian two-hybrid fusion) (UniProt Q96CV9). Briefly: mammalian two-hybrid (luciferase reporter). On the set-up: unit not given here. As to conditions: HEK293 cells; 48 h after transfection; n = 3; parent: est. 6.5; read off a plot.
UniProt Q96CV9, sequence (Q96CV9 395-577, stated change not applied): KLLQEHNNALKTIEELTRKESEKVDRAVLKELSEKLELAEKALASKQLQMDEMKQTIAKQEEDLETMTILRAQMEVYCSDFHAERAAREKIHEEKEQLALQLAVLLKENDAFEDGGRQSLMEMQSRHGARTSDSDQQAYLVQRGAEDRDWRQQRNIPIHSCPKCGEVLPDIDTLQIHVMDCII
As to “E3-14.7K wild type in pCMV-AD (mammalian two-hybrid fusion) E27D; R28Y; E29K; R30D; L31E”, the response was found to be 4.5. Regarding “E3-14.7K wild type in pCMV-AD (mammalian two-hybrid fusion) H42D; Q43Y; C44K; K45D; R46E”, the response came out at 0.1.

As to “E3-14.7K wild type in pCMV-AD (mammalian two-hybrid fusion) H102D; F103Y; P104K; Y105D; Q106E”, the response came out at 11.

With “E3-14.7K wild type in pCMV-AD (mammalian two-hybrid fusion) I12D; N13Y; T14K; E15D; Q16E”, the response stood at 4.6.

With “E3-14.7K wild type in pCMV-AD (mammalian two-hybrid fusion) L7D; E8Y; L9K; G11E”, the response stood at 6. For “E3-14.7K wild type in pCMV-AD (mammalian two-hybrid fusion) M38Y; V39K; N40D; L41E”, the response was determined as 2.2. Then “E3-14.7K wild type in pCMV-AD (mammalian two-hybrid fusion) M82D; V83Y; G84K; E85D; K86E”, with 0.2; and “E3-14.7K wild type in pCMV-AD (mammalian two-hybrid fusion) P87D; I88Y; T89K; V90D; T91E”, with 0.6. Then “E3-14.7K wild type in pCMV-AD (mammalian two-hybrid fusion) R17D; L18Y; L19K; E20D; R21E”, with 2.8; and “E3-14.7K wild type in pCMV-AD (mammalian two-hybrid fusion) R22D; K23Y; A24K; A25D; S26E”, with 2.9; and “E3-14.7K wild type in pCMV-AD (mammalian two-hybrid fusion) T2D; E3Y; S4K; L5D; D6E”, with 5.1. Then “E3-14.7K wild type in pCMV-AD (mammalian two-hybrid fusion) T62D; T63Y; T64K; G65D; N66E”, with 0.5.
